A short description of the data set: label from the status in PepcDB records.
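Further: failed if final PepcDB status was selected cloned or expressed and not failed if soluble or beyond.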

Regarding “MEVARGLEGVLFTESRMCYIDGQQGKLYYYGIPIQELAEKSSFEETTFLLLHGRLPRRQELEEFSAALARRRALPAHLLESFKRYPVSAHPMSFLRTAVSEFGMLDPTEGDISREALYEKGLDLIAKFATIVAANKRLKEGKEPIPPREDLSHAANFLYMANGVEPSPEQARLMDAALILHAEHGFNASTFTAIAAFSTETDLYSAITAAVASLKGPRHGGANEAVMRMIQEIGTPERAREWVREKLAKKERIMGMGHRVYKAFDPRAGVLEKLARLVAEKHGHSKEYQILKIVEEEAGKVLNPRGIYPNVDFYSGVVYSDLGFSLEFFTPIFAVARISGWVGHILEYQELDNRLLRPGAKYVGELDVPYVPLEARE”, the protein production entry is given as “not failed”. The value for “MEVAVEKAVAAAAAASAAASGGPSAAPSGENEAESRQGPDSERGGEAARLNLLDTCAVCHQNIQSRAPKLLPCLHSFCQRCLPAPQRYLMLPAPMLGSAETPPPVPAPGSPVSGSSPFATQVGVIRCPVCSQECAERHIIDNFFVKDTTEVPSSTVEKSNQVCTSCEDNAEANGFCVECVEWLCKTCIRAHQRVKFTKDHTVRQKEEVSPEAVGVTSQRPVFCPFHKKEQLKLYCETCDKLTCRDCQLLEHKEHRYQFIEEAFQNQKVIIDTLITKLMEKTKYIKFTGNQIQNRIIEVNQNQKQVEQDIKVAIFTLMVEINKKGKALLHQLESLAKDHRMKLMQQQQEVAGLSKQLEHVMHFSKWAVSSGSSTALLYSKRLITYRLRHLLRARCDASPVTNNTIQFHCDPSFWAQNIINLGSLVIEDKESQPQMPKQNPVVEQNSQPPSGLSSNQLSKFPTQISLAQLRLQHMQQQVMAQRQQVQRRPAPVGLPNPRMQGPIQQPSISHQQPPPRLINFQNHSPKPNGPVLPPHPQQLRYPPNQNIPRQAIKPNPLQMAFLAQQAIKQWQISSGQGTPSTTNSTSSTPSSPTITSAAGYDGKAFGSPMIDLSSPVGGSYNLPSLPDIDCSSTIMLDNIVRKDTNIDHGQPRPPSNRTVQSPNSSVPSPGLAGPVTMTSVHPPIRSPSASSVGSRGSSGSSSKPAGADSTHKVPVVMLEPIRIKQENSGPPENYDFPVVIVKQESDEESRPQNANYPRSILTSLLLNSSQSSTSEETVLRSDAPDSTGDQPGLHQDNSSNGKSEWLDPSQKSPLHVGETRKEDDPNEDWCAVCQNGGELLCCEKCPKVFHLSCHVPTLTNFPSGEWICTFCRDLSKPEVEYDCDAPSHNSEKKKTEGLVKLTPIDKRKCERLLLFLYCHEMSLAFQDPVPLTVPDYYKIIKNPMDLSTIKKRLQEDYSMYSKPEDFVADFRLIFQNCAEFNEPDSEVANAGIKLENYFEELLKNLYPEKRFPKPEFRNESEDNKFSDDSDDDFVQPRKKRLKSIEERQLLK” was “not failed”; that for “MEVDEDIELQKHQEQQSRKLQRFSEDNTGLMRNWNNPSSRIIRVSRASGGKDRHSKVLTSKGLRDRRIRLSVATAIQFYDLQDRLGFDQPSKAVEWLINAASDSITDLPLLNTNFDHLDQNQNQTKSACSSGTSESSLLSLSRTEIRGKARERARERTAKDRDKDLQNAHSSFTQLLTGGFDQQPSNRNWTGGSDCFNPVQLQIPNSSSQEPMNHPFSFVPDYNFGISSSSSAINGGYSSRGTLQSNSQSLFLNNNNNITQRSSISSSSSSSSPMDSQSISFFMATPPPLDHHNHQLPETFDGRLYLYYGEGNRSSDDKAKERR” was “failed”; that for “MEVDLSGFNIDAPRWDQCTFLGRVKHFFNITDPRTVFVSEQELDWAKSVVEKSRMGLMPPGTQVEQLLYAKKLYDSAFHPDTGEKMNVIGRMSFQVPGGMIITGFMLQFYRTMPAVVFWQWVNQSFNALVNYTNRNAVSPTSVR” was “failed”. As for “MEVERLSLKEFCDMVAERKPTPGGGAVGSVVGAMACALAEMVANFTRKKKGYEDVEPEMERIVEAMEEARLKLFDLAKKDMEAFEKVMKAYKSSEGELQNALKEAASVPMDVIRVMKDLAHELEKLAEFGNKNLASDTLNAADLCHAVFQVEKVNVLINLKEISDETFRKNMLEELEEQEAQIEGCYQRVKKMLEGIVWSSK”, the protein production result is reported as “not failed”.

In the case of “MEVIREQEFVNQYHYDARNLEWEEENGTPKTNFEVTFQLANRDEAAKVTSIVAVLQFVIVRDEFVISGVISQMAHIQGRLINEPSEFSQDEVENLAAPLLEIVKRLTYEVTEIALDRPGVTLEFNS”, the protein production entry is “not failed”. Regarding “MEVKMPFVVFVKRSVRFPGKHSYMIGGKSLLEIIVSKLSNIGKVYVFTKDKDIICNGCSIEFDTTNGIITDSVLAAIDKFGTFFAVAGDMPLIKPELVSKMLSQYKGSPLFPRHMDGMLEPLFGIYTEDLYNALKEYLDKGGESLHAFLLTQPLQYYDIGSDDEVNFININYKSDIEKYRDLLVQLLEHHHHHH”, the protein production entry is listed as “not failed”. The value for “MEVKYLKDSEFLVLLLITTFVVITNVYFIAWDDSPQSWDPALHLTYSFVYFNLIKSLQFSEIVKVSNYYPPFFYLSSTPLYFLFGFSEDIAILTNLIYYFILIYSVFQIAKIMKDRNAGVISAVIISAFPALIKFQRVYMIDFALLSLTAFAILLYLRSEDFRNLKYSVLFGIVFGIAELTKWNAFVYIIPSIFALFLVNYFMRCPYCHQIVKNGWKVGYRRFCSKKHLKLYEKSAKTNNTMLNFAISLFVAFLFAAWWYLPNLSTVIMRLTYFANIGGKEGDPAFLTIQGWIYYANSILDAVGAVFLILFAVSIYYLYKNNRYLFLGLLTPIALIYIILTLLSNKDPRYIMPVLPFVAISIGVFVSSLANRKYSTILTFIILLFGLLNISALTFGQPDIDNKILPNPEHPKKEDWKIYALLEAIKESGGEGKIVVVLPDHPYLNGQSLNFYRLKEGYKFAIYNGVYIGYEAFVHNFDKITYIILIEPREHKGVYGDIEKKLYEFFYERKDNFEVVKVFDLPDNSKLYIYKRT” was “failed”; that for “MEVMRGVRVIEGMNGGRFPYCNVVVVGDVVIDAGAGLEVMRKVNASLLVLSHLHPDHSSGAWLFKDVLAPAEGRITLDTLARRFVAPDLVESWKRFISAATGLREFECERYEEGVVVKEPEIVAVPVKGHTMDHHVFLIEQKVLFGADVDLTSFGPFYGNPEADPYLFEREMDKLLDIDFEIFVSAHSKPVFGKEEAEGRILEFKRKIKEREEIILSLLEEPKSLDELVELSPIYGRKPYAKEILDFFERVMIEKHIEKLEMEGRVRKEDGKYVRV” was “failed”. Then “MEVPMDCPGCENKVRKALEKMNGVHDVQIDIKQQRVTVTGSAEQKKVLKVARNVTKRDICLWSYPYHPESNGYNDRYFKKKFRKRINMSVNGEKVSSYNYHKHGYHGHEHGYYQERPYSGLINPSASSMFSEENPHFCSIM”, with “failed”. Take “MEVRGYKTEVALGKSSNSLLAGGLERRWQRLSGGCLGLLLMLPAVAAAAVYVPNAGQAMRDIQATQPALPEQPAPELDLPAKPPSAPAQAPDTSGIRLQVNDFVIVGNQVFSNETLQALLADLKGQELDLNQLRAAAERLTTYYQNQGYMLARAFLPAQDIEDGVVRIEVMEGRYGRIQVNNQSRALNSVITGPLSSLHSDTAVRSEDLERSLLLLSDLPGVRVKGTLSAGEQRGTTDLLVNAQPGPWASGTLEADNFGGYYTGEYRLGGSLNLNNPLRLGDQFNLRLLGSDEDQRYYRAAYKLPLGPWSTSVGVAYSRMNYELSRDFEVLEAHGQASIGSVFITQPLIRSRTFDLSAQLQYEDKRLRDDIDLFEVSSQKHVELWSLSLNGNSQDSLLGGGQNFFYLTYGSGRLSIDDPMDQWRDHFTAGTNGGFQKLNLNAARLQYLSPRFQLYGQFNGQWSSTNLDSSEKFGIGGPFDVRAYPQGTSSGDQGWQASLELRFLLAPRWQLKAFVDHGAVQVNKSPWIHDENRRQLSGAGVGASWSGPSQQISVTSAWALDNNQEGSGPERTPRIWASATQYF”: the protein production entry is listed as “failed”.

As for “MEVSKIRIHDLPEEERPRERLIKNGPESLSNAELLGIVLRTGSREENVISLCSRILMEYNIKQLSLANVSKLMQVNGIGKAKAAQIAAVFELARRLETFVEEPKRKISSPKDVYTLMYPKMREQKKEKFITLYLDTKNQILKEEVVSIGSLNASIVHPREVFKSALMESSASVIMVHNHPSGDPSPSREDIMVTEKLVEGGKLLGIDILDHIIIGDGRYVSLKDEGFVK”, the protein production result is “not failed”. Then “MEVSSFSTVPRYCNSRSFVPELSRFRGFKVHLWDQSLVPLHFSIRKRKNTPRYLISCSQKKDVTVVDGSCMDEIYDKLAERLVPTAAAMFSPNLKRLVGLAGPPGAGKSTVANEVVRRVNKLWPQKAASFDAEVNPPDVAIVLPMDGFHLYRSQLDAMEDPKEAHARRGAPWTFDPALLLNCLKKLKNEGSVYVPSFDHGVGDPVEDDIFVSLQHKVVIVEGNYILLEEGSWKDISDMFDEKWFIDVNLDTAMQRVENRHISTGKPPDVAKWRVDYNDRPNAELIIKSKTNADLLIRSMNI”, with “failed”; and “MEVVVVGDAQAMAGRVPTVMHVRCPDRLREGVYRQVLELLTDLSPVVQALPPTAALVELKGALRYHGSEVHRLGEVLRVRTLSRLGVDVRVGIGPSITIAATASAQVPLPGGVLTVAPDDVTDWLAPLPGEALHGLGPRQAGALHEYGIHTVGLLAAVSPETVQRLLGGKAGRLAADRARGRDPRPVVPRALPAAATVRMRFDRHVLDGADVRAALLDLVVQLGRLLRRRGQAARAVSLTLQFAGGGSWEKSRRLPEPSAHDEDLRTMAYRLIDAAGLQRGRLTGLFLKADDLVDADRVAQQISLDQAREARLVAEATVDRVRDKFGPGVIGPAATARRAS”, with “failed”. Consider “MEVYTTENEQVDVLRRFLAENGKALVVGVVLGVGALVGWRFWQSHQNDSVQAASASYQQVTEQLAEGKAEAIASTEKFTAENKNTYGALASLELARHYVDQKDFAKAVQQLVQAQSQTKDADLLAVVNLRLARVQLQENKADDALKTLDAIKLEGWASQAAEVRGDILASKGDNQAARDAYNKGLSSNPSQAQQALLRMKLNNLSS”, for which the protein production result is listed as “failed”.

In the case of “MEWGGLDERQICWQVNGRGGQGLAGCSFLRGVRKRSRPPRLLPSRPPAAMSTFERHIIKRLLKGFVLFVGALLVFFIVLHWVEYSDDFLDGGATIWEVFTVFYPNYVPEIIRLTSPLALFLSCIYLTGTLAQELQLVALQTSGVSLYQLMRPYLGVGLLVTVFMFGFNGWVVPKTNEVVVRYENEYLPGNQKSVQTSEIHRRNGPNSILSVGYYDADRERAHTVSLQQLAGDARLARRVDANRMEWDDSLEVWRLDDVTRRTFVKGETQRKRTIASLDTTLQVYPRDLARSKNDVAAMTIPAAAEYLAALRRSGVGGLTRPLVAYYNKFAYPFANLLLVLIGVPIASTRRRGGQAVRFAIGLLIAFVYLSVQKLAEPLGYAGTLSPAWTAWLPHLTFAVVALLVLWWARK”, the protein production result was “failed”.

Turning to “MEWKLERTAPRRVRTEEEMLWESIMRVLSKDLKQKRSQDSANVLDSVNATYSDFKSNFAKRLSAEVPVASSPITTRWQQSQTRALSSDSFGEEQSTTYLPEASGSVLKTPPEKETLTLGSCKEQLKTPSKGISETSNSALHFCKAPHAMDRDWKESVASKGQKCLKQLFVTQNVVQQANGKMQLCEQSECVWKGCKDGVRDESFHLKSSGDINDSILQPEVKIHITGLRNDYYLNILDWSFQNLVAIALGSAVYIWNGENHNGIENIDLSLTCNYISSVSWIKEGTCLAVGTSEGEVQLWDVVTKKRLRNMLGHLSVVGALSWNHFILSSGSRLGRVYHHDVRVAQHHVGTLRHKQAVCALKWSPDGRLLSSGCSDGLLTIWPHDPGASAQGQPLKVITQSTAVKAMDWCPWQSGVLAIGGGMKDGRLHILDINAGKSIQTPSTNSQICSLIWLPKTKEIATGQGTPKNDVTVWTCPTVSRSGGFFGHRGRVLHLALSPDQTWVFSAAADGTASVWNCY”, the protein production entry is listed as “failed”.

Turning to “MEWLEQLLGKEWSLVPAGGVTGDAYIAQNGQQKLFLKRNTSPFLAVLSAEGIVPKLLWTRRVTNGDVISAQKWLPGQKLEPEDMKLERVAKLLKKIHSSKALVQMIQRLGKQPLHAQELLQQLQLVLRGDIRDEETIQQGLQYLMDSLKDIEYNEFVVCHCDVNHNNWLLSDEDELFLIDWDGAVIADPALDLGMLLYWYIPRQEWSEWLGYYDIEMDESLLKRMRWYVIAQTILSIQWHTTKKQQAEAEYWHQYLQQLLASE”, the protein production entry is listed as “failed”.

The values are drawn from a protein production outcome set (Wang et al. 2014).
